Patent US20200129630A1, “METHODS FOR TREATING CANCER” (BicycleRD Limited, priority 2018, published 2020)
Numbered stars: 1 amine (or outer) side, 2 acyl side, 3 side chain; on linkers, the order of the positions; unused ones are H or OH. Bridge positions count the residues as written; N and C are the ends. Square brackets hold non-standard residues; d marks the D form. Peptide text beside a SMILES is read from it. * marks the point of attachment. X1 = COc1cc2cc(c1Cl)N(C)C(=O)C[C@H](OC(=O)[C@H](C)N(C)C(=O)CCSSC(C)CCC(=O)*)[C@]1(C)O[C@H]1[C@H](C)[C@@H]1C[C@@](O)(NC(=O)O1)[C@H](OC)/C=C/C=C(\C)C2; 1Nal = N[C@@H](Cc1cccc2ccccc12)C(=O)O; TBMB = c1c(C[*:1])cc(C[*:3])cc1C[*:2]; Tle = CC(C)(C)[C@H](N)C(=O)O; βAla = NCCC(=O)O; Sar = CNCC(=O)O

What was measured:
MOLP-8 = assay: In vitro cytotoxicity (CellTiter-Glo) MOLP-8; assay type: cell-based; settings: MOLP-8, Myeloma
Excerpt: (§1) Table 1 and Table 2 Notes: in general regression and stable disease correlated with the in vitro cytotoxicity and MT1-MMP expression. Female BALB/c mice n=3/group animals dosed twice per week except EBC-1 three per week. Tumor growth inhibition (TGI) (%)=[1−(Ti−T0)/(Vi−V0)]×100; Ti is the average tumor volume of a treatment group on a given day, TO is the average tumor volume of the treatment group on the day of treatment start, Vi is the average tumor volume of vehicle control group on the same day with Ti, and V0 is the average tumor volume of vehicle group on the day of treatment start. A one-way ANOVA was performed to compare tumor volume among groups, and when a significant F-statistics (a ratio of treatment variance to the error variance) was obtained, comparisons between groups were carried out with Games-Howell test. All data were analyzed using GraphPad Prism.* p<0.05, ** p<0.01, *** p<0.001. In vitro cytotoxicity was measured by CellTiter-Glo®, MT1-MMP membrane H score from immunohistochemistry staining, NM not measured. Tumor size on Day 1 of dosing.

[1] = biological target: hemopexin domain of MT1-MMP (Homo sapiens, UniProt P50281); assay: Binding to hemopexin domain of MT1-MMP
Description: Bicycle drug conjugates (BDCs) with a variety of linkers and cytotoxic payloads were prepared which retained binding to MT1.
BT1718 is a BDC that binds to MT1-MMP and upon cleavage of its disulphide linker, releases the cytotoxic tubulin inhibitor, DM1 (also referred to as DM1-SH).

[2] = CNS behavioral model (Irwin study); assay type: in vivo; settings: single dose 0.2, 0.5 or 1 mg/kg, rats
Description: (§2) As part of the Good Laboratory Practice (GLP)-compliant toxicity studies, a core battery of safety pharmacology tests were performed. […] Electrocardiogram (ECG) and respiratory plethysmography measurements were taken in monkeys dosed at 0.2, 0.5, 1 and 1.5 mg/kg (2.4, 6, 12 and 18 mg/m^2 respectively) twice weekly on Day 4, Day 22 (following 2nd and 7th dose) and in the recovery period (for animals dosed with 0, 6 and 12 mg/m^2 twice weekly). Blood pressure (BP) measurements were also evaluated in the same monkeys on Day 1 and Day 25 and in the recovery period. […] It is therefore concluded that BT1718 has no cardiac, respiratory or behavioral liability at the doses and schedule tested in the GLP toxicity studies.

[3] = Stability in whole blood in vitro, human; assay type: in vitro ADME; settings: 37° C.
Description: (§3) The stability of BT1718 was assessed in plasma and whole blood from humans, monkey, dog, mouse and rat. […] The mechanism for the difference in stability of the BT1718 peptide in whole blood between the different species is unknown.

[4] = ECG, respiratory plethysmography and blood pressure (GLP safety pharmacology); assay type: in vivo; settings: monkeys 0.2, 0.5, 1 and 1.5 mg/kg twice weekly
Description: as §2

HT-29 = assay: In vitro cytotoxicity (CellTiter-Glo) HT-29; assay type: cell-based; settings: HT-29, Colorectal
Excerpt: as §1

[5] = Wistar Han rat GLP study toxicokinetics; assay type: in vivo; settings: plasma, Day 1 male; for Cmax: read-out: C0/Cmax
Excerpt: In a repeat dose experiment with BT1718 no significant gender-related differences in the TK parameters for the rat or monkey were noted. Exposure in both the rat and monkey increased approximately linearly with dose and was maintained for 28 days on repeat dosing. […] Plasma clearance and volume of distribution were similar across BT1718 dose and consistent with the PK studies.

[6] = Stability in plasma in vitro, rat; assay type: in vitro ADME; settings: 37° C.
Description: as §3

HT-1080 = assay: In vitro cytotoxicity (CellTiter-Glo) HT-1080; assay type: cell-based; settings: HT-1080, Fibrosarcoma
Excerpt: as §1

[7] = GLP-compliant 28-day repeat dose toxicity study, monkey; assay type: in vivo, Cynomolgus monkeys
Description: In a GLP-compliant study in Cynomolgus monkeys, the highest non-severely toxic dose (HNSTD) of BT1718 was established to be 18 mg/m^2 administered twice weekly, equivalent to a human dose of 0.48 mg/kg. In a GLP-compliant study in the rat, the MTD was not reached with the highest administered dose 6 mg/m^2 twice weekly. At this dose level, there was kidney toxicity (with no effect on clinical condition) and also testicular toxicity. After 28 days off-dose, there was evidence of partial recovery of kidney-related findings, but no recovery of testicular effects at this dose level. […] Therefore, the MTD for rat for twice weekly dosing was considered to be between 1 and 1.5 mg/kg.

[8] = Stability in plasma in vitro, human; assay type: in vitro ADME; settings: 37° C.
Description: as §3

[9] = CD1 mouse dose response PK study
NCI-H1975 = assay: In vitro cytotoxicity (CellTiter-Glo) NCI-H1975; assay type: cell-based; settings: NCI-H1975, NSCLC
Excerpt: as §1

HCT-15 = assay: In vitro cytotoxicity (CellTiter-Glo) HCT-15; assay type: cell-based; settings: HCT-15, Colorectal
Excerpt: as §1

EBC-1 = assay: In vitro cytotoxicity (CellTiter-Glo) EBC-1; assay type: cell-based; settings: EBC-1, Lung
Excerpt: as §1

[10] = 1.2 mg/m2, Wister Han rats GLP, 1.2 mg/m^2 IV
[11] = 3 mg/m2, Wister Han rats GLP, 3 mg/m^2 IV
[12] = 6 mg/m2, Wister Han rats GLP, 6 mg/m^2 IV
[13] = male, CD1, mouse, plasma, iv, 15 mg/m2
[14] = male, CD1, mouse, plasma, iv, 30 mg/m2
[15] = male, CD1, mouse, plasma, iv, 60 mg/m2

Structure (SMILES): COc1cc2cc(c1Cl)N(C)C(=O)C[C@H](OC(=O)[C@H](C)N(C)C(=O)CCSSC(C)CCC(=O)NCCC(=O)N(C)CC(=O)N(C)CC(=O)N(C)CC(=O)N(C)CC(=O)N(C)CC(=O)N(C)CC(=O)N(C)CC(=O)N(C)CC(=O)N(C)CC(=O)N(C)CC(=O)N[C@@H](C)C(=O)N[C@H]1CSCc3cc4cc(c3)CSC[C@H](NC(=O)[C@@H](C)NC(=O)[C@H](Cc3cccc5ccccc35)NC(=O)[C@H](CCC(=O)O)NC(=O)[C@H](CC(N)=O)NC(=O)[C@@H](C)NC1=O)C(=O)N[C@@H](CCC(=O)O)C(=O)N[C@@H](CC(=O)O)C(=O)N[C@@H](Cc1ccccc1)C(=O)N[C@@H](Cc1ccc(O)cc1)C(=O)N[C@@H](CC(=O)O)C(=O)N[C@@H](C(C)(C)C)C(=O)N[C@H](C(N)=O)CSC4)[C@]1(C)O[C@H]1[C@H](C)[C@@H]1C[C@@](O)(NC(=O)O1)[C@H](OC)/C=C/C=C(\C)C2 (stereo partly shown) [BT1718] ({X1-βAla}-[Sar][Sar][Sar][Sar][Sar][Sar][Sar][Sar][Sar][Sar]AC[dA]NE[1Nal][dA]CEDFYD[Tle]C-NH2; linker 12-18-25 via TBMB (inferred))
- IC50 (MOLP-8): 0.141 µM
- Ki [1]: 0.00175 ± 0.00092 µM
- CNS behavioral effects (Irwin study) [2]: No effects
- half-life [3]: 120 to 240 min
- ECG, respiratory plethysmography, blood pressure findings [4]: no BT1718 related findings
- IC50 (HT-29): 0.013 µM
- AUC [5, 10]: 0.09 µM·h
- Cmax [5, 10]: 80 nM
- AUC [5, 11]: 0.46 µM·h
- Cmax [5, 11]: 590 nM
- AUC [5, 12]: 0.85 µM·h
- Cmax [5, 12]: 1020 nM
- half-life [6]: > 360 min
- IC50 (HT-1080): 0.0043 µM
- HNSTD ([7]; 28 day-repeat dose GLP monkey study, twice weekly): 1.5 mg/kg
- highest non-severely toxic dose (HNSTD) ([7]; Cynomolgus monkeys, GLP, twice weekly): 18 mg/m^2
- GI-related findings ([7]; GLP monkey): No GI-related findings
- bladder changes ([7]; GLP monkey): No bladder changes
- liver toxicity ([7]; GLP monkey up to 1.5 mg/kg, 18 mg/m^2 twice weekly): No liver toxicity
- local toxicity at or around injection site ([7]; GLP monkey, 0.5 mg/kg (6 mg/m^2) twice weekly and above): black colouration of the skin
- renal changes ([7]; GLP monkey, highest dose tested 1.5 mg/kg (18 mg/m^2)): No renal changes
- onset dose of minimal axonal degeneration ([7]; GLP monkey, twice weekly): 1 mg/kg
- HNSTD, equivalent human dose ([7]; from 18 mg/m^2 twice weekly in monkeys): 0.48 mg/kg
- anti-drug antibodies (ADAs) in serum ([7]; monkey 28-day GLP study): negative
- reproductive organ findings ([7]; monkey studies): No changes in reproduction organs
- increase in platelets ([7]; monkeys 1 mg/kg (12 mg/m^2) twice weekly or above): 1.4-2.5 ×
- lymphoid findings ([7]; monkeys 1 mg/kg or 1.5 mg/kg twice weekly): Reversible thymus atrophy and decreased germinal centres in lymph nodes
- white blood cell (WBC) reduction, maximum ([7]; monkeys, onset 0.5 mg/kg (6 mg/m^2) twice weekly, reversible): 0.11 ×
- reticulocyte reduction, maximum ([7]; monkeys, onset 1 mg/kg (12 mg/m^2) twice weekly, reversible): 0.2 ×
- half-life [8]: > 360 min
- AUC ([9]; CD1, mouse, plasma, intravenous, 10 mg/kg): 5.3 µM·h
- AUC ([9]; CD1 mouse, male, 30 mg/m^2 IV): 5.3
- AUC ([9]; CD1 mouse, male, 60 mg/m^2 IV): 11.6
- AUC ([9]; male, CD1, mouse, plasma, intravenous, 20 mg/kg): 11.6 µM·h
- AUC [9, 13]: 2.8 µM·h
- Cmax [9, 13]: 9300 nM
- Vd [9, 13]: 0.2 L/kg
- clearance [9, 13]: 8.4 mL/min/kg
- half-life [9, 13]: 19.8 min
- Cmax ([9]; male, CD1, mouse, plasma, iv, 20 mg/kg): 38200 nM
- Vd [9, 14]: 0.27 L/kg
- clearance [9, 14]: 9 mL/min/kg
- half-life [9, 14]: 20.4 min
- Vd [9, 15]: 0.22 L/kg
- clearance [9, 15]: 8.2 mL/min/kg
- half-life [9, 15]: 20.4 min
- IC50 (NCI-H1975): 0.0197 µM
- IC50 (HCT-15): 0.87 µM
- IC50 (EBC-1): 0.027 µM
